The target of data set [1] is endogenous pro-Monalysin (Pseudomonas entomophila (endogenous in strain L48)) (UniProt Q1I8U1). The data set is described as follows: high-speed atomic force microscopy; on mica surface in low salt buffer (30 mM NaCl, 10 mM sodium phosphate, pH 7.0), strongly immobilised.
The target is the same in data set [2]. Briefly: high-speed atomic force microscopy; on mica surface in PBS buffer, room temperature (24-26°C).
Data set [3] deals with the molecule itself. Briefly: MALDI-TOF MS; active-Monalysin mixed with sinapic acid matrix; molecular weight of the multimer.
Data set [4] concerns the molecule itself. Briefly: high-speed atomic force microscopy; on mica surface in low salt buffer (30 mM NaCl, 10 mM sodium phosphate, pH 7.0), strongly immobilised.

With “endogenous pro-Monalysin (from UniProt Q1I8U1 1-271) (natural protein)”, the stoichiometry N (commonly a count of units in the complex or per binding partner) in data set [1] is 8; in data set [2], 16.

B1: active-Monalysin (trypsin-treated endogenous pro-Monalysin) (natural protein, UniProt Q1I8U1 34-271, looked up)
chain: NLSGRFDQYPTKKGDFAIDGYLLDYSSPKQGCWVDGITVYGDIYIGKQNWGTYTRPVFAYLQYVETISIPQNVTTTLSYQLTKGHTRSFETSVNAKYSVGANIDIVNVGSEISTGFTRSESWSTTQSFTDTTEMKGPGTFVIYQVVLVYAHNATSAGRQNANAFAYSKTQAVGSRVDLYYLSAITQRKRVIVPSSNAVTPLDWDTVQRNVLMENYNPGSNSGHFSFDWSAYNDPHRRY
notes: Monalysin of Pseudomonas entomophila, product of trypsin cleavage of the pro-form; monomer of 27 kDa on SDS-PAGE; also called active-form; cleaved mature form; source: purified pro-Monalysin from P. entomophila L48, treated with trypsin (0.2 mg/mL, 25°C, 10 min)
For the molecule B1, the “stoichiometry N” value was about 8 in data set [3] and 8 in data set [4].

(Values after article PMC7118224, “Molecular and Functional Analysis of Pore-Forming Toxin Monalysin From Entomopathogenic Bacterium Pseudomonas entomophila” (Frontiers in Immunology, 2020).)
